# According to the supplement of paper PMC12042874:
# ± gives the uncertainty stated by the source.
# Experiment: amyloid nucleation score (Sup35N fusion, yeast selection) (log enrichment); library NNK2; higher = more nucleation; inactive = no reads after selection
# Procedure, shortened: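 Output and input plasmid inserts were sequenced by Illumina after psi-negative yeast carrying Sup35N fused to peptides of 20 random codons had been induced 24 hours with 100 μM copper sulfate and grown 7 days at 30°C on medium lacking adenine and uracil. The nucleation score is the DiMSum log enrichment of output over input reads, centred on the mode score of non-aggregating sequences. Sequences with under 100 input reads were excluded.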
row,Substance,amyloid nucleation score
1,LRFRVLFVFPRDPW,-0.918 ± 0.78
2,LRLFCDMYTISSNAVDFVKF,inactive
3,LRLFYHVR,-0.641 ± 0.33
4,LRLGHVIPGVKNCREEND,-0.745 ± 0.3
5,LRLSSGLKSVRTRRRM,0.904 ± 0.37
6,LRLVYISTMIQMPFGRRVF,3.73 ± 0.04
7,LRPLVL,-0.686 ± 1.1
8,LRQRY,-0.233 ± 0.64
9,LRSVKMIRCLNSSLPLNGRG,0.735 ± 0.12
10,LRSYWSGIGTTGPV,4.57 ± 0.1
11,LRTQSILYLRRMG,-0.164 ± 0.32
12,LRVCNFCTFHFVWWS,4.8 ± 0.06
13,LRVHESAGSNLVVWIKIVLE,3.42 ± 0.14
14,LRWVKKRTAAQN,-0.023 ± 0.63
15,LRYLGWLACDYKTVGRSVTR,0.978 ± 0.74
16,LRYRDASEALSYLCMQYDVI,2.94 ± 0.05
17,LSDYLPISSWFSLCTEFLAT,-1.02 ± 1.1
18,LSEGCSLSTSVSMT,-0.392 ± 0.44
19,LSFIFL,4.256 ± 0.031
20,LSFSNPWFMIKSRDMFVCIG,0.792 ± 0.8
21,LSGAPRLILRVNLWDTFDVQ,4 ± 0.046
22,LSGVGFLDFRPLN,0.734 ± 0.81

row,Substance,amyloid nucleation score
1,LSHLFSV,-0.381 ± 1.1
2,LSHMLDLRGNNKSFWCYVEG,0.89 ± 0.44
3,LSKPDLRTGSDDMS,-0.297 ± 0.79
4,LSLYIGFYMKGGSCRC,0.007 ± 0.79
5,LSNCNRMLAGQGGGSRSDWR,0.907 ± 0.37
6,LSNKRKVSSLLM,inactive
7,LSNLGTNYR,inactive
8,LSQVSRFLSSTNLT,0.579 ± 0.47
9,LSSGLLSLFALKQCF,-0.669 ± 0.54
10,LSSHPLGLGHTMGHRKF,0.985 ± 0.48
11,LSSTFLNFA,inactive
12,LSWVRAIS,0.2 ± 0.38
13,LSWYDLSVQWNLYNIVGRRV,2.06 ± 0.078
14,LTFNLLSTLTFVRVLVPPLA,0.803 ± 0.34
15,LTGCGDFSLLSIYFSRMHRG,5.2 ± 0.078
16,LTGFLNGAGNN,1.75 ± 0.12
17,LTGTMVMIVNPLDCVLGVER,5.01 ± 0.085
18,LTLAS,0.49 ± 0.25
19,LTNCRIVLSLNQARVRIESI,0.218 ± 0.8
20,LTNKLELNLGASIADSVGNN,-0.89 ± 0.49
21,LTPIPFYNPDNISYYNAFPS,inactive
22,LTVLFLYLSLRCHSYNPAHA,-0.841 ± 1.1

row,Substance,amyloid nucleation score
1,LTVRDLVPPPAMANRFLTVI,-0.016 ± 0.44
2,LTYLFVQSSVAWLSLMIH,0.253 ± 0.6
3,LVCSCIGHVHGVTH,7.125 ± 0.067
4,LVDRPGFSVNVD,-0.191 ± 0.35
5,LVHCLSPRIVATGVPHGMMV,1.04 ± 0.35
6,LVKGRAAERCNFLSWVKSVQ,-0.533 ± 0.3
7,LVKVHSISMLINSYLGEFCL,0.045 ± 0.79
8,LVLLVPGKLMCF,4.12 ± 0.081
9,LVLSGGRV,0.184 ± 0.42
10,LVLYGNVA,0.28 ± 0.74
11,LVMVCMVSFENHYMLGTEVL,2.71 ± 0.14
12,LVNDHGVSVVSCGTD,0.053 ± 0.79
13,LVQRWGWSKPLIAGI,-0.271 ± 0.49
14,LVRMPRGTSFGRCNVCV,inactive
15,LVRNPAQMSFRPIVHSVCYL,0.724 ± 0.16
16,LVSFGVYMLSSVRKECHSLN,0.536 ± 0.49
17,LVSNHASYFIQI,7.467 ± 0.035
18,LVTVSVVPSWSAVRPTGMNV,0.84 ± 0.46
19,LVYDKENIGRLDRRRVWRRQ,0.767 ± 0.74
20,LVYVT,0.434 ± 0.37
21,LWFKCGHSIQGLVRVTESGS,-0.15 ± 0.27
22,LWFLVFMDMVRRWRGNHRGE,-0.656 ± 1.1

row,Substance,amyloid nucleation score
1,LWHESC,-0.119 ± 0.33
2,LWITVRATPRLDRS,1.03 ± 0.21
3,LWLKEVYRWMIGGTRYL,-0.618 ± 0.76
4,LWLVSKAYRYLPYSDWKSAL,0.161 ± 0.77
5,LWMDWS,0.754 ± 0.36
6,LWVLTSRDDVFMVVFFMTPK,-0.483 ± 0.5
7,LYCSSLFKVYRGVQTRAKLR,inactive
8,LYDMTCRSSVKGNV,-1.19 ± 0.75
9,LYENWPCFT,-0.199 ± 0.53
10,LYEYHHGFVCQRVCGAIVGR,1.23 ± 0.43
11,LYFMCNFLTCSL,7.893 ± 0.057
12,LYFSNPWFMIKSRDMFVCIG,0.51 ± 0.18
13,LYFSSTYCLLVGKTDQIDCH,inactive
14,LYGNYDTSYTLIQVISLRNG,6.202 ± 0.04
15,LYHDEALVWNLRDVSRIYRL,3.59 ± 0.1
16,LYKSSQKKPQTLNDFQIAMW,0.193 ± 0.65
17,LYLYSWRCNPISP,inactive
18,LYPCYYCRAEKVHVRLDFTR,-0.517 ± 0.23
19,LYREDGNMSDH,1.82 ± 0.28
20,LYSCWVSCLEGRLVCGPLTH,-0.65 ± 0.39
